Measured values reported in patent US20190382484A1 (Chugai, published 2019).

Target: T1, FcγRIIIa extracellular domain (UniProt P08637 17-208, limits assumed)
T1 construct: extracellular domain; Purified over HisTrap, so a His tag is implied
Experiment: SPR (Biacore T200), half molecule captured via biotinylated antigen peptide on CAP chip, FcγR as analyte

T1 sequence (P08637 17-208 limits assumed): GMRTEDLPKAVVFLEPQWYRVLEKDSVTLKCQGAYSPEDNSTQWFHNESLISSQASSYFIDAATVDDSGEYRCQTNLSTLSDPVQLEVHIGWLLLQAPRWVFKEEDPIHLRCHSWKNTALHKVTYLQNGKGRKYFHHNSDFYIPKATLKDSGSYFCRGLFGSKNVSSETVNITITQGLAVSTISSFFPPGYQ

Row | Binder | binding result
1 | MRAH-DA303v2/MRAL-k0 (antibody, human IgG1, kappa, Antibody-half molecule (one H chain, one L chain); L chain MRAL-k0; also called A1; antibody-half molecule A1) heavy: QVQLQESGPGLVRPSQTLSLTCTVSGYSITSDHAWSWVRQPPGRGLEWIGYISYSGITTYNPSLKSRVTMLRDTSKNQFSLRLSSVTAADTAVYYCARSLARTTAMDYWGQGSLVTVSSASTKGPSVFPLAPSSKSTSGGTAALGCLVKDYFPEPVTVSWNSGALTSGVHTFPAVLQSSGLYSLSSVVTVPSSSLGTQTYICNVNHKPSNTKVDKKVEPKSCDKTHTSPPSPAPEYQWGPMVFLFPPKPKDTLMISRTPEVTCVVVDVSDEEPEVKFNWYVDGVEVHNAKTKPREEQYNATYRVVSVLTVLHQDWLNGKEYKCKVSNKALPAPIEKTISKAKGQPREPQVYTLPPSRKELTKNQVSLTCLVKGFYPSDIAVEWESNGQPENNYKTTPPYLDSDGSFFLYSDLTVDKSRWQQGNVFSCSVMHEALHNHYTQKSLSLSP light: not shown | no binding
2 | MRAH-DA402v2/MRAL-k0 (antibody, human IgG1, kappa, Antibody-half molecule (one H chain, one L chain); also called A2; antibody-half molecule A2) heavy: QVQLQESGPGLVRPSQTLSLTCTVSGYSITSDHAWSWVRQPPGRGLEWIGYISYSGITTYNPSLKSRVTMLRDTSKNQFSLRLSSVTAADTAVYYCARSLARTTAMDYWGQGSLVTVSSASTKGPSVFPLAPSSKSTSGGTAALGCLVKDYFPEPVTVSWNSGALTSGVHTFPAVLQSSGLYSLSSVVTVPSSSLGTQTYICNVNHKPSNTKVDKKVEPKSCDKTHTSPPSPAPEYQWGPMVFLFPPKPKDTLMISRTPEVTCVVVDVSDEEPEVKFNWYVDGVEVHNAKTKPREEQYNATYRVVSVLTVLHQDWLNGKEYKCKVSNKALPAPIEKTISKAKGQPREPQVYTLPPSRKELTKNQVSLTCLVKGFYPSDIAVEWESNGQPENNYKTTPPYLDSDGSFFLYSHLTVDKSRWQQGNVFSCSVMHEALHNHYTQKSLSLSP light: not shown | no binding
3 | MRAH-DA424v2/MRAL-k0 (antibody, human IgG1, kappa, Antibody-half molecule (one H chain, one L chain); also called antibody-half molecule A4) heavy: QVQLQESGPGLVRPSQTLSLTCTVSGYSITSDHAWSWVRQPPGRGLEWIGYISYSGITTYNPSLKSRVTMLRDTSKNQFSLRLSSVTAADTAVYYCARSLARTTAMDYWGQGSLVTVSSASTKGPSVFPLAPSSKSTSGGTAALGCLVKDYFPEPVTVSWNSGALTSGVHTFPAVLQSSGLYSLSSVVTVPSSSLGTQTYICNVNHKPSNTKVDKKVEPKSCDKTHTSPPSPAPEYQWGPMVFLFPPKPKDTLMISRTPEVTCVVVDVSDEEPEVKFNWYVDGVEVHNAKTKPREEQYNATYRVVSVLTVLHQDWLNGKEYKCKVSNKALPAPIEKTISKAKGQPREPQVYTLPPSRKNLTKNQVSLTCLVKGFYPSDIAVEWESNGQPENNYKTTPPYLDSDGSFFLYSDLTVDKSRWQQGNVFSCSVMHEALHNHYTQKSLSLSP light: not shown | no binding
4 | MRAH-DA430v2/MRAL-k0 (antibody, human IgG1, kappa, Antibody-half molecule (one H chain, one L chain); also called A5; antibody-half molecule A5) heavy: QVQLQESGPGLVRPSQTLSLTCTVSGYSITSDHAWSWVRQPPGRGLEWIGYISYSGITTYNPSLKSRVTMLRDTSKNQFSLRLSSVTAADTAVYYCARSLARTTAMDYWGQGSLVTVSSASTKGPSVFPLAPSSKSTSGGTAALGCLVKDYFPEPVTVSWNSGALTSGVHTFPAVLQSSGLYSLSSVVTVPSSSLGTQTYICNVNHKPSNTKVDKKVEPKSCDKTHTSPPSPAPEYQWGPMVFLFPPKPKDTLMISRTPEVTCVVVDVSDEEPEVKFNWYVDGVEVHNAKTKPREEQYNATYRVVSVLTVLHQDWLNGKEYKCKVSNKALPAPIEKTISKAKGQPREPQVYTLPPSRKLLTKNQVSLTCLVKGFYPSDIAVEWESNGQPENNYKTTPPYLDSDGSFFLYSDLTVDKSRWQQGNVFSCSVMHEALHNHYTQKSLSLSP light: not shown | no binding
5 | MRAH-DB220v2/MRAL-k0 (antibody, human IgG1, kappa, Antibody-half molecule (one H chain, one L chain); also called B1; antibody-half molecule B1) heavy: QVQLQESGPGLVRPSQTLSLTCTVSGYSITSDHAWSWVRQPPGRGLEWIGYISYSGITTYNPSLKSRVTMLRDTSKNQFSLRLSSVTAADTAVYYCARSLARTTAMDYWGQGSLVTVSSASTKGPSVFPLAPSSKSTSGGTAALGCLVKDYFPEPVTVSWNSGALTSGVHTFPAVLQSSGLYSLSSVVTVPSSSLGTQTYICNVNHKPSNTKVDKKVEPKSCDKTHTSPPSPAPELLGGPSVFLFPPKPKDTLMISRTPEVTCVVVDVSHEEPEVKFNWYVDGVEVHNAKTKPREEQYNSTYRVVSVLTVLHQDWLNGKEYKCKVSNDALPMPIEETISKAKGQPREPQVYTLPPSRDELTKNQVSLTCLVKGFYPSDIAVEWESNGQPENNYKTTPPYLDSDGSFFLYSDLTVDKSRWQQGNVFSCSVMHEALHNHYTQESLSLSP light: not shown | no binding
